# According to PMC9078203:
# Where two headings read alike, the source gives them in different places.
# Key:
# [1] = molecular target: DIP-α G74A (D. melanogaster) (UniProt Q9W4R3); experiment: AUC
# [2] = molecular target: DIP-α K81Q (D. melanogaster) (UniProt Q9W4R3); experiment: AUC
# [3] = molecular target: DIP-α K81Q G74S (D. melanogaster) (UniProt Q9W4R3); experiment: AUC
# [4] = molecular target: DIP-β (D. melanogaster); experiment: SPR
# [5] = molecular target: DIP-α G74A (D. melanogaster) (UniProt Q9W4R3); experiment: SPR
# [6] = molecular target: DIP-γ (D. melanogaster); experiment: SPR
# [7] = molecular target: DIP-α K81Q G74S (D. melanogaster) (UniProt Q9W4R3); experiment: SPR
# [8] = molecular target: DIP-α K81Q (D. melanogaster) (UniProt Q9W4R3); experiment: SPR
# [9] = molecular target: DIP-α (D. melanogaster) (UniProt Q9W4R3); experiment: SPR
# [10] = molecular target: DIP-α (D. melanogaster) (UniProt Q9W4R3); experiment: SPR; remark: listed apart in the source
substance,measurement,setting,value
DIP-α G74A (from UniProt Q9W4R3 1-554) (natural protein),Kd,[1],50 µM
same,stoichiometry N,[1],2
DIP-α K81Q (from UniProt Q9W4R3 1-554) (natural protein),Kd,[2],19.6 µM
same,stoichiometry N,[2],2
DIP-α K81Q G74S (from UniProt Q9W4R3 1-554) (natural protein),Kd,[3],46 µM
same,stoichiometry N,[3],2
Dpr10 (from UniProt Q9VT83 1-408) (natural protein),Kd,[4],33 µM
same,Kd,[5],0.9 µM
same,Kd,[6],> 1000 µM
same,Kd,[7],68 µM
same,Kd,[8],31.8 µM
Dpr10 Q138D (from UniProt Q9VT83 1-408) (natural protein),Kd,[9],27.8 µM
same,Kd,[10],27.6 µM
Dpr10 Q142M (from UniProt Q9VT83 1-408) (natural protein),Kd,[5],0.1 µM
same,Kd,[10],0.19 µM
Dpr10 V144K (from UniProt Q9VT83 1-408) (natural protein),Kd,[10],11.3 µM
Dpr10 V144K Q142E G99D (from UniProt Q9VT83 1-408) (natural protein),Kd,[10],50 µM
